The test system of series [1] is lymphoma cells. In words: CDC susceptibility: inhibitors plus rituximab with 10% active human complement. It is filed as cell-based. To be noted: concomitant incubation with rituximab. As for the experimental part: (§1) […] lymphoma cells were exposed to inhibitors of exosome synthesis or release at non-toxic dose ranges. Exosomes were harvested after a 24 h incubation period, and yields were measured by AChE activity (a) and detection of flotillin-2 by Western Blot (b). […] Significant differences to controls without inhibitors (one-way ANOVA with Dunn's post test) are marked with asterices, equivalent results were obtained for the cell lines Balm-3 and Su-DHL-4 (FIG. 10).
(§2) After 24 hours at 37° C., cell viability was determined in triplicates by […] staining as described before. The effect on viability was expressed as the ratio of values from treated versus untreated samples, i.e. specific viability=100× absorbance with antibody treatment/absorbance of untreated control. To detect complement decomposition of C3 in supernatant of exosome coupled to beads, monoclonal antibody 13/15 was coated onto 96-well Medisorp plates (NUNC, Medisorp, Thermo Fisher Scientific) blocked, and washed. Subsequently, appropriately diluted supernatant of exosome:bead complex samples were added to the plate for 60 minutes, washed, and incubated with rabbit anti-C3d for 60 min. After washing, finally anti-rabbit Fc conjugated to horseradish peroxidase (anti-rFc-HRP) was added for 60 minutes, before a further washing and addition of TMB substrate solution. […]

Series [2] has as its system OCI-Ly1 lymphoma cells. In words: Inhibition of exosome shedding by inhibitors (AChE activity, flotillin-2 Western blot). It is filed as cell-based, human. To be noted: non-toxic dose ranges, 24 h. As for the experimental part:
as §1
5×10^7 lymphoma cells were exposed to inhibitors of exosome synthesis or release at non-toxic dose ranges. Exosomes were harvested after a 24 h incubation period, and yields were measured by AChE activity. Significant differences to controls without inhibitors (one-way ANOVA) are marked with asterices.
(§3) Exosomes were prepared by differential centrifugation according to standard protocols (modified according to Valadi, H. et al. Nat. Cell Biol. 9, 654-659 (2007)). […] Exosomes were quantified by measuring whole protein according to standard protocols (BioRad-DC-Protein-Assay), Western blot detecting flotillin-2 in comparison with whole cells or control exosome preparations, and acetyl-cholin-esterase (AChE) activity as previously described (Savina, A., Fader, C. M., Damiani, M. T., & Colombo, M. I. Traffic. 6, 131-143 (2005)).

The target of series [3] is T1, exosomal CD20 (Homo sapiens, UniProt P11836).
T1 construct: endogenous in cells; host or cells: exosomes purified from culture supernatants of Balm-3 and Su-DHL-4 lymphoma cells
T1 sequence (P11836 1-297): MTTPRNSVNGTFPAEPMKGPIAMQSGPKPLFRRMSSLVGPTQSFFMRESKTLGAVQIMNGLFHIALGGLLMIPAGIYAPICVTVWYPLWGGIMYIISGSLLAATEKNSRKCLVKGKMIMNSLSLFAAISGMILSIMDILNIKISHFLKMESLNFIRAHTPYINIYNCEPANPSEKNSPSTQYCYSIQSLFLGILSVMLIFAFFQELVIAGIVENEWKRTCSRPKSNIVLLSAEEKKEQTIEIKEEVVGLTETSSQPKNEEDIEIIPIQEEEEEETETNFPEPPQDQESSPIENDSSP
Nature of the series: Binding of therapeutic anti-CD20 antibodies to lymphoma exosomes (immunogold, Western blot, FACS of exosome-labelled beads). The note with it: purified exosome-labelled beads, Su-DHL-4.
Description: Cells or exosomes coupled to beads were stained with fluorescence-labelled monoclonal antibodies, and analyzed by flow cytometry.
FACS analysis of exosomal surface proteins was carried out after exosomes were coupled to latex beads as previously described (Thery, C., Zitvogel, L., & Amigorena, S, Nat. Rev. Immunol. 2, 569-579 (2002)). Exosomes (40 μg protein) were incubated in 30 μl PBS with 4 μm aldehyde/sulfate latex beads (3 μl of a 4% w/v suspension, Invitrogen) for 15 min., and again for 2 h after addition of 500 μl PBS at room temperature (RT) under constant agitation. The reaction was stopped by addition of 100 μl 1M glycine for 30 min. at RT with gentle agitation, followed by three washes in PBS/0.5% w/v bovine serum albumin (BSA). Antibody staining followed the protocols for antibody staining of cells in suspension.
Detection of membrane-bound fluorescence were performed using standard protocols for flow cytometry. 1×10^5 cells per condition were washed once with PBS and thereafter incubated for 30 min at room temperature and protected from light with either primary antibody or isotype control (both 1:50).

Series [4] deals with lymphoma cell lines. Nature of the series: CDC susceptibility after RNAi silencing of ABCA3. It is filed as cell-based, human. The note with it: rituximab in the presence of complement, vs lv GFP control. As for the experimental part: (§4) The effects were measured after incubation for 48 h by AChE activity (b, cell line Balm-3, significance tested by one-way ANOVA), whole exosomal protein (c, significance tested by Student's two-sample t-test), as well as flotillin-2 detection from exosome preparations in the cell culture supernatant (d). Addressing ABCA3 overexpression, 4×10^7 cells of HEK293A, the stable ABCA3 overexpressing cell line HEK293A-ABCA3, as well as K562 cells were incubated for 17 h in 36 ml of exosome-free cell culture medium, and exosome yields measured as total exosomal protein.
as §2, with “min.” for “min. After washing, finally anti-rabbit Fc conjugated to horseradish peroxidase (anti-rFc-HRP) was added for 60 minutes, before a further washing and addition of TMB substrate solution.”

Series [5] has as its system ABCA3. Nature of the series: Exosome release after silencing of ABCA3 by lentiviral shRNA. It is filed as cell-based, human. As for the experimental part:
as §4
As small molecules were used at the concentrations indicated: mTOR inhibitor rapamycin, COX-2 inhibitor indometacin, cholesterol synthesis inhibitor U18666A (all from Sigma). As fluorescent dyes CalceinAM and PKH26 were applied (both from Molecular Probes). […]
as §3

Consider `CCN(CC)CCO[C@H]1CC[C@@]2(C)C(=CC[C@@H]3[C@@H]2CC[C@]2(C)C(=O)CC[C@@H]32)C1` [U18666A], for which, in series [1], the “CDC susceptibility / cytolytic activity of rituximab” value is reported as “Enhanced CDC Susceptibility”. Besides, the “exosome shedding / release” value in series [2] is reported as “Inhibition of Exosome Shedding”.
In the case of “GA101: therapeutic anti-CD20 monoclonal antibody (type II, Roche)”, in series [3], the “exosomal binding by FACS” value is listed as “Exosomal binding”.

B1: anti-ABCA3 shRNA: lentiviral shRNA silencing ABCA3, sequences SEQ ID NO: 1 and SEQ ID NO: 2 cloned into pLKO.1 (nucleic acid)
chain 1: CCGGGCCCAGCTCATTGGGAAATTTCTCGAGAAATTTCCCAATGAGCTGGGCTTTTTG
chain 2: AATTCAAAAAAAATTTCCCAATGAGCTGGGCCTCGAGGCCCAGCTCATTGGGAAATTT
modifications: the letters are possibly those of the target site
For B1, the results for the “susceptibility to CDC” value in series [4] (listed as lentiviral RNAi) and in series [4] (listed as shRNA against ABCA3) were “significantly increased the susceptibility of the lymphoma cells to CDC-mediated lysis” and “increased susceptibility of lymphoma cell lines to CDC”, respectively. Further, the “exosome release vs mock transfected controls” value in series [5] (48 h, AChE activity, whole exosomal protein, flotillin-2, Balm-3) is listed as “decreased exosome release”. Moreover, the “reduction of exosome release” value in series [5] (Balm-3, Su-DHL-4 and OCI-Ly1) is given as “approximately 50%”.

The values are drawn from US20130028895A1, “EXOSOME INHIBITING AGENTS AND USES THEREOF” (priority 2011, published 2013).
